In US20250277030A1 (Zymeworks, published 2025):

Key:
[1] = target: T1, KLH (Sigma-Aldrich, H8283); test: non-specific binding ELISA, KLH coated at 5 µg/mL, antibody at 100 nM
T1 construct: also called keyhole limpet hemocyanin
Description: NS-ELISA was carried out in Corning®96-well EIA/RIA Easy Wash™ Clear Flat Bottom Polystyrene High Bind Microplate coated overnight at 4° C. with 50 μL of Heparin (Sigma, H3149) diluted with 50 mM sodium carbonate pH 9.6 to a final concentration of 250 μg/mL. The plate was incubated for 2 days at room temperature, wells that were coated with heparin were not covered to allow air dry. […] 50 μL each of insulin, KLH, dsDNA and ssDNA were added to a 96 well plate, followed by the incubation at 37° C. for 2 h. The coating materials were removed, and the plate was blocked with 200 μL of Gibco™ PBS pH7.4, 0.1% Tween®20, and incubated for 1 h at room temperature with shaking at 200 rpm. The plate was washed 3 times with Gibco™ PBS pH7.4, 0.1% Tween 20. […] Reactions were stopped after approximately 10 minutes by adding 100 μL of 1 M HCl to each well, and absorbance was read at 450 nm. Binding scores were calculated as the ratio of the ELISA signal of the antibody (antibody-treated) to the signal of a well containing buffer instead of the primary antibody (untreated). The cutoffs considered for each binding molecule (ssDNA, KLH, insulin, dsDNA and heparin) were internally calculated, based on the average of Zymeworks Inc. produced antibodies and antibodies benchmarks published in the literature.

[2] = target: T2, human sodium-dependent phosphate transporter 2B (NaPi2b) (human, UniProt O95436 1-690); test: flow cytometry on HCC-78 cells (endogenous NaPi2b), 4 C, anti-human IgG Fc AF647 detection
T2 construct: UniProt ID is given as 095436 [sic]; also called hNaPi2b; Hu NaPi2b
T2 sequence: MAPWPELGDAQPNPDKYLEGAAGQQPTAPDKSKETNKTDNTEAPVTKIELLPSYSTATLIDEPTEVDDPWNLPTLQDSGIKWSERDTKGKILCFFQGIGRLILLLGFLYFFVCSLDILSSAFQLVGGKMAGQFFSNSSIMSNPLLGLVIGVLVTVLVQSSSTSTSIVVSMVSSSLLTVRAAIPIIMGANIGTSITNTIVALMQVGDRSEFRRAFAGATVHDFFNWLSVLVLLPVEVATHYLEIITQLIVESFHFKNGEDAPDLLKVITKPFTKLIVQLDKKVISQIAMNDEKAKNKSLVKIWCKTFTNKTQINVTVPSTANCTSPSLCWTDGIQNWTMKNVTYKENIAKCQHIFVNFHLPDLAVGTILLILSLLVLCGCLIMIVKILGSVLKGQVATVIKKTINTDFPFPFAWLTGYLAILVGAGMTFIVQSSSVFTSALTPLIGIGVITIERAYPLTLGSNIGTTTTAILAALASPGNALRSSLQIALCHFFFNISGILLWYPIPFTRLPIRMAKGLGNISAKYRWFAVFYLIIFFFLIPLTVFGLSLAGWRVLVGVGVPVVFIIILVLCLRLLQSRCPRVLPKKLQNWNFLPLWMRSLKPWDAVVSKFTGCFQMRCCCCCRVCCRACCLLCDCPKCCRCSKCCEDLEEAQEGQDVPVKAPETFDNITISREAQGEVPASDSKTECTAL
Description: (§1) Briefly, HEK293-6e cells were transfected for ˜24 hours to transiently express human NaPi2b, cynomolgus or mouse NaPi2b, at 1 μg of DNA per 1 million cells. Following transfection, 50,000 cells per well were seeded in V-bottom 96-well plates and incubated with 200 nM of primary antibody for 18-24 hours at 4° C. to prevent internalization. Post-incubation, cells were washed and stained with anti-Human IgG Fc AF647 conjugate (Jackson Immuno Research Labs, West Grove, PA, Cat. No. 109-605-098, Lot. No. 124868) at 4° C. for 1 hour. Following staining and washing, fluorescence was detected by flow cytometry on BD LSRFortessa™ Cell Analyzer (BD Biosciences, Franklin Lake, NJ) with 10,000 minimum events collected per well. The AF647/APC-A GeoMean (fluorescence signal geometric mean, proportional to anti-Human AF647 binding) was calculated for the live singlet cell population for each primary antibody using FlowJo™ v8 software (BD Biosciences, Franklin Lake, NJ). The Bmax and Kd of each primary antibody were calculated using GraphPad Prism Version 9 (GraphPad Software, San Diego, CA)
The ability of ADCs to bind to cells expressing NaPi2b was assessed. […] Binding to endogenous high NaPi2b-expressing cell lines IGROV-1 and HCC-78 was assessed by flow cytometry according to methods described in Example 5.

[3] = target: T2, human sodium-dependent phosphate …; test: flow cytometry, TOV-21G cells (endogenous NaPi2b); apparent Kd
Description: Briefly, cells were seeded at 50,000 cells/well in conical-bottom 96-well plates and treated with test antibody for 24 hours at 4° C. to prevent internalization. […] Following incubation, cells were washed and stained with anti-Human IgG Fc AF647 conjugate (Jackson Immuno Research Labs, West Grove, PA; Cat. No. 109-605-098) at 4° C. for 30 min. Following incubation and washing, fluorescence was detected by flow cytometry on a BD LSRFortessa™ Cell Analyzer (BD Biosciences, Franklin Lake, NJ) with 1,000 minimum events collected per well. The AF647/APC-A GeoMean (fluorescence signal geometric mean, proportional to anti-Human AF647 binding) was calculated for the live cell population using FlowJo™ Version 10.8.1 (BD Biosciences, Franklin Lake, NJ) and plotted for each test antibody using GraphPad Prism Version 9 (GraphPad Software, San Diego, CA).
The ability of the humanized antibody variants v38591 and v29456 to bind to NaPi2b expressed on cells was assessed on endogenous NaPi2b-expressing tumor cell lines IGROV-1 (ovarian adenocarcinoma) and TOV-21G (ovarian carcinoma) by flow cytometry.
Cellular binding was performed according to methods described in Example 13.

[4] = target: T2, human sodium-dependent phosphate …; test: flow cytometry, IGROV-1 cells (endogenous NaPi2b), 24 h at 4 °C; apparent Kd
Summary of the method: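 IGROV-1 cells were incubated with test antibody for 24 hours at 4° C to prevent internalization, then stained with anti-human IgG Fc AF647 for 30 min at 4° C. AF647 geometric mean fluorescence of live cells was measured by flow cytometry and plotted per antibody.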

[5] = target: T3, mouse NaPi2b (mouse, UniProt Q9DBP0 1-697); test: flow cytometry, HEK293-6e cells transfected with mouse NaPi2b; apparent Kd
T3 construct: Transiently expressed on HEK293-6e cells; also called Ms NaPi2b
T3 sequence: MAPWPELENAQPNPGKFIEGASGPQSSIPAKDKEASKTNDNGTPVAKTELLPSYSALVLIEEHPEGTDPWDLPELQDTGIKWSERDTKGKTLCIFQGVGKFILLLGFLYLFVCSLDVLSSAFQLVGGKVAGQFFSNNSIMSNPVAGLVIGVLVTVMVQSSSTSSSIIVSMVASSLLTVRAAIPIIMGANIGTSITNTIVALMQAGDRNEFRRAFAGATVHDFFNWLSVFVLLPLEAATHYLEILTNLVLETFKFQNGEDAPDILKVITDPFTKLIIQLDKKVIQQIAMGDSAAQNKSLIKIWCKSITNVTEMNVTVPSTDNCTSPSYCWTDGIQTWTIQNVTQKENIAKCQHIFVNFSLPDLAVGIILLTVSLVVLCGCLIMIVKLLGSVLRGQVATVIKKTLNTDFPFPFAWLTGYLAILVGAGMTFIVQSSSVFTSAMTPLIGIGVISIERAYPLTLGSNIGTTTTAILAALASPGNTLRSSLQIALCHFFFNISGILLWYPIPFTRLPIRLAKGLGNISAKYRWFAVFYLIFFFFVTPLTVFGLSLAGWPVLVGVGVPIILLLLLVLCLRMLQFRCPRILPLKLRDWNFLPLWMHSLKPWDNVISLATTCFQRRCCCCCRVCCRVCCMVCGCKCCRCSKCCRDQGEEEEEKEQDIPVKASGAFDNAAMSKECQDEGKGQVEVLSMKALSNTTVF
Description: The binding cross-reactivity of humanized antibody variant v29456 to human, cynomolgus and mouse NaPi2b was assessed by flow cytometry using HEK293-6e transfected cells.
as §1

NS-ELISA binding score (ratio of signal between antibody-treated and untreated) [1]: 1.37 ratio
EC50 (read off the curve) [2]: ~2 nM
Kd [3]: 0.6 nM
Kd [4]: 1.1 nM
Kd [5]: 10.6 nM
B1: v29456 humanized anti-NaPi2b antibody (H1L2) (antibody, human IgG1, kappa)
heavy: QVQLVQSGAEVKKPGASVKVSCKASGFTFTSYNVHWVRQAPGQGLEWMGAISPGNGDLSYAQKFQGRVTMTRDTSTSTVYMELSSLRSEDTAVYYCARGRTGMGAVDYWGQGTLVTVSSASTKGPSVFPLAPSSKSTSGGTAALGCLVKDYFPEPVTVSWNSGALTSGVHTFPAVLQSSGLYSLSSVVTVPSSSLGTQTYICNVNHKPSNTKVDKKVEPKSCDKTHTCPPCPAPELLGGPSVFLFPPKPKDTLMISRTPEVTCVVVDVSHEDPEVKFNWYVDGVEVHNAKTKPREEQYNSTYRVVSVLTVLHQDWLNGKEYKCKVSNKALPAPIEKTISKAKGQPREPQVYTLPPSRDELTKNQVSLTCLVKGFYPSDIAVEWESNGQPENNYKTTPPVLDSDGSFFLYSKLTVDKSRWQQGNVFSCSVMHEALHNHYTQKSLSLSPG
light: DVQMTQSPSSLSASVGDRVTITCRASQDVYSYLNWYQQKPGKAVKLLIYYTSRLQSGVPSRFSGSGSGTDYTLTISSLQPEDFATYYCQQYNIFPWTFGQGTKLEIKRTVAAPSVFIFPPSDEQLKSGTASVVCLLNNFYPREAKVQWKVDNALQSGNSQESVTEQDSKDSTYSLSSTLTLSKADYEKHKVYACEVTHQGLSSPVTKSFNRGEC
